Measured values from patent US20240327847, “COMPOSITIONS AND METHODS FOR RNA AFFINITY” (SANOFI, published 2024).

Molecular target: streptavidin (UniProt P22629 P22629:25-183)
Test: pulldown; recovery similar to tRNA scaffold control, described as non-specific under these conditions
Conditions: tags: immobilised on sepharose beads (streptavidin sepharose); chain copies: 4 (inferred)
Protocol: Subsequently, the beads were resuspended in 20 μL of binding buffer with RNasin Ribonuclease Inhibitor (3 μL/100 units) and then incubated on ice for 15 minutes. (2) Preparation of RNA aptamers. 2.5 μg of the RNA aptamers were resuspended in 10 μL binding buffer. Refolding of the RNA aptamers was performed by heating at 56° C. for 5 min, 37° C. for 10 min, followed by a room temperature incubation for 5 minutes to refold aptamer structure. At the end of the RNA aptamer preparation procedure, 2 μL of the random aptamer and the Sim aptamer in a 1:2 mix with binding buffer were collected as a control for total RNA aptamer yield (input control). (3) Incubation conditions. 10 μL of refolded aptamer containing mRNA (2.5 μg) aptamers were added to the beads and incubated at 4° C. for 2 hours on a rotator. Subsequently, beads were washed 3 times with 100 μL of binding buffer and kept on ice for the remainder of the procedure to maintain aptamer secondary structure. (4) Elution of RNA aptamers from beads. Elution was performed with 250 μL phenol-based reagent in the following steps. […] RNA concentration following streptavidin affinity purification was quantified on a Nanodrop using parameters set by the manufacturer's specifications.
Affinity binding of the Sm, tRNA, tRNA-Sm, and 2× tRNA Sm aptamer tags were analyzed. […]

Chain of streptavidin (P22629 25-183, one chain of several): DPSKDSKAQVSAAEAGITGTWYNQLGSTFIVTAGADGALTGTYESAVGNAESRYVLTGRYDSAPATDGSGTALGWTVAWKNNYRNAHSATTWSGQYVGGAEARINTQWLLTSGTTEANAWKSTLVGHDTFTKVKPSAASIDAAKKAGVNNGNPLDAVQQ

Binder: CGACCAGAAUCAUGCAAGUGCGUAAGAUAGUCGCGGG (ssRNA) [Sm aptamer (pAM20)]
- binding result: no binding
